Experiments:
mouse CLDN6 = molecular target: T1, mouse CLDN6 (mouse, UniProt Q9Z262 1-219); assay: FACS on Ba/F3 transfectant, antibody 20 micro g/ml, FITC anti-human IgG
T1 construct: whole, on cells; also called mCLDN6; BaF3_mCLDN6
T1 sequence (looked up): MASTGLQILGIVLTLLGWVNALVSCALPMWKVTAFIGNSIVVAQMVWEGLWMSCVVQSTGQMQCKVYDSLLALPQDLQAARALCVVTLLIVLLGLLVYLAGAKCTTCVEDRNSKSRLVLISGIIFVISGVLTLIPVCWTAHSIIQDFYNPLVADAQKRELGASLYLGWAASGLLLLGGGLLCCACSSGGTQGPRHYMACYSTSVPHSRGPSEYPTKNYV
Experimental: (§1) To evaluate the binding activity and specificity of the generated CLDN6-TRABs against CLDN6 and other Claudin family antigens, FACS analysis was conducted as follows. Ba/F3 transfectants stably express a kind of protein selected from human CLDN3 (hCLDN3), human CLDN4 (hCLDN4), human CLDN6 (hCLDN6), human CLDN9 (hCLDN9), mouse CLDN3 (mCLDN3), mouse CLDN4 (mCLDN4) and mouse CLDN6 (mCLDN6), were generated using similar method described in WO2008/087978, and named BaF3_hCLDN3, BaF3_hCLDN4, BaF3_hCLDN6, BaF3_hCLDN9, BaF3 mCLDN3, BaF3 mCLDN4, BaF3 mCLDN6, respectively. Each of the CLDN6-TRABs (CH01/CD3, CH02/CD3, CH03/CD3, CH04/CD3) was incubated with the Ba/F3 transfectants at an antibody concentration of 20 micro g/ml in FACS buffer (0.5% BSA containing autoMACS Rinsing Solution, Miltenyl Biotec). Binding activities of each CLDN6-TRAB to the Claudin family proteins (hCLDN3, hCLDN4, hCLDN6, hCLDN9, mCLDN3, mCLDN4, mCLDN6) were examined by incubation of FITC-conjugated goat anti human IgG (BeckmanCoulter), represented as Geo-mean value. Sample processing was conducted on FACSVerse (BD).
(§2) Claudin family proteins have two extracellular domains. The sequence of the first extracellular domain in human CLDN9 is almost the same compared with the first extracellular domain of human CLDN6. For the second extracellular domain of human CLDN9, there are only two amino acids different from the ones at their corresponding positions in human CLDN6 (FIG. 2). The glutamine at position 156 of human Claudin 6 (position 156 in the sequence shown in SEQ ID NO: 44 or 45) was substituted to leucine to make a human CLDN6 mutant comprising the same amino acid as human Claudin 9 at position 156. This human CLDN6 mutant was named as hCLDN6(Q156L) (SEQ ID NO: 53). Ba/F3 transfectant stably express hCLDN6(Q156L) was generated using similar method described in WO2008/087978. The established Ba/F3 transfectant was named BaF3_hCLDN6(Q156L). Binding activity of the generated CLDN6-TRABs against BaF3_hCLDN6(Q156L) was measured using the above mentioned FACS method and the results are shown in FIG. 1 and Table 3.

human CLDN6 [1] = molecular target: T2, human CLDN6 (human, UniProt P56747 1-220); assay: as above
T2 construct: 45 is entered here, 44 is equally possible; also called hCLDN6; human Claudin 6
T2 sequence: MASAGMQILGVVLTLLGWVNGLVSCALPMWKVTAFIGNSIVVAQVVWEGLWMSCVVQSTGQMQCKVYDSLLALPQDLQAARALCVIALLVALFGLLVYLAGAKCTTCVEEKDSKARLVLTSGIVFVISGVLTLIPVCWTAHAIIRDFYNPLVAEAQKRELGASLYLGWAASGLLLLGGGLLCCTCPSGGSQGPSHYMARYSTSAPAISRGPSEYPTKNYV
Experimental: as §1, §2

mouse CLDN3 = molecular target: T3, mouse CLDN3 (mouse, UniProt Q9Z0G9 1-219); assay: as above
T3 construct: whole, on cells; also called mCLDN3; BaF3_mCLDN3
T3 sequence (looked up): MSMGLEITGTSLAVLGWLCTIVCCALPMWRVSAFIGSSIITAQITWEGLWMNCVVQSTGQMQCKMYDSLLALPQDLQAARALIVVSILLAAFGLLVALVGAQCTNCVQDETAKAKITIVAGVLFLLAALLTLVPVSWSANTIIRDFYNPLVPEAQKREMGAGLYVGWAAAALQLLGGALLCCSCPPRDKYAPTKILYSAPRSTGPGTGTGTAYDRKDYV
Experimental: as §1, §2

human CLDN9 = molecular target: T4, human CLDN9 (human, UniProt O95484 1-217); assay: as above
T4 construct: whole, on cells; also called hCLDN9; BaF3_hCLDN9
T4 sequence (looked up): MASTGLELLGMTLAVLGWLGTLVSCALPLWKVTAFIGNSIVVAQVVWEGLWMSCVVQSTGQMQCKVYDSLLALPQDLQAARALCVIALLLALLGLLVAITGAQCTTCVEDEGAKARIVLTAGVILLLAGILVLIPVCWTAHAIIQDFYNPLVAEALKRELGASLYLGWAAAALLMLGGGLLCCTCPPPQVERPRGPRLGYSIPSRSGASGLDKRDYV
Experimental: as §1, §2

hCLDN6(Q156L) = molecular target: T5, hCLDN6(Q156L) (human, UniProt P56747 1-220); assay: as above
T5 construct: Stably expressed on Ba/F3 cells; also called human CLDN6 mutant; BaF3_hCLDN6(Q156L)
T5 chain: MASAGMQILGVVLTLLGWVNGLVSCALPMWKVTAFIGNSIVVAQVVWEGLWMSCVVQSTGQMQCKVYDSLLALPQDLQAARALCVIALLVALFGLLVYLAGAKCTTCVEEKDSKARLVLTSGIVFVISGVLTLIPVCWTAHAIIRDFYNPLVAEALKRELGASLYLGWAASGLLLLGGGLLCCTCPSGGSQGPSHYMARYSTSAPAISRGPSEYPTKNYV
Experimental: as §1, §2

human CLDN3 = molecular target: T6, human CLDN3 (human, UniProt O15551 1-220); assay: as above
T6 construct: whole, on cells; also called hCLDN3; BaF3_hCLDN3
T6 sequence (looked up): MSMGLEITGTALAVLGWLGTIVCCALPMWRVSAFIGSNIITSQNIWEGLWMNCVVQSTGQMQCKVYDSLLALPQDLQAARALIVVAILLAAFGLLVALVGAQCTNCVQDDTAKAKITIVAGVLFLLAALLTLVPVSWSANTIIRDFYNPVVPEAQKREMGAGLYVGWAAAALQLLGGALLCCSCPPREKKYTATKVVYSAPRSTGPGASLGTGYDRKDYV
Experimental: as §1, §2

human CLDN4 = molecular target: T7, human CLDN4 (human, UniProt O14493 1-209); assay: as above
T7 construct: whole, on cells; also called hCLDN4; BaF3_hCLDN4
T7 sequence (looked up): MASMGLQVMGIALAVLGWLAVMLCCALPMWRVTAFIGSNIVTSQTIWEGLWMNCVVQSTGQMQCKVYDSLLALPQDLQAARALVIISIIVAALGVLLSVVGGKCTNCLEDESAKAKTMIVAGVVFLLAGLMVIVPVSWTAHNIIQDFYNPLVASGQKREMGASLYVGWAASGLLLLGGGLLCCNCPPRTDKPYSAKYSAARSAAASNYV
Experimental: as §1, §2

mouse CLDN4 = molecular target: T8, mouse CLDN4 (mouse, UniProt O35054 1-210); assay: as above
T8 construct: whole, on cells; also called mCLDN4; BaF3_mCLDN4
T8 sequence (looked up): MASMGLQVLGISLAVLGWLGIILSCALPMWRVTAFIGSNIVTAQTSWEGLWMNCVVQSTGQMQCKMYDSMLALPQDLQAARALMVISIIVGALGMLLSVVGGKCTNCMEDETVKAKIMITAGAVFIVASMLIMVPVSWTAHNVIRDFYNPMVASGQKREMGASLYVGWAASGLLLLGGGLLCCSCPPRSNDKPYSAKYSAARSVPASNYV
Experimental: as §1, §2

human CLDN6 [2] = molecular target: T2, human CLDN6; assay: cell-based or functional assay
human CLDN6 [3] = molecular target: T2, human CLDN6; assay: cell-based or functional assay; remark: listed apart in the source

B1: CH03/CD3 (bispecific antibody, human IgG1, kappa, N297A)
heavy 1: EVQVEQSGPELVKPGASVKISCKTSGYTFTEYTMHWVKQSHGKSLEWIGGINPNNGNTRYNQKFKGKATLTVDKSSSTAYMELRTLTSEDSAVYYCARCGDFDLFFFFAYWGQGTLVTVSAASTKGPSVFPLAPSSKSTSGGTAALGCLVKDYFPEPVTVSWNSGALTSGVHTFPAVLQSSGLYSLSSVVTVPSSSLGTQTYICNVNHKPSNTKVDKKVEPKSCDKTHTCPPCPAPELRGGPKVFLFPPKPKDTLMISRTPEVTCVVVDVSHEDPEVKFNWYVDGVEVHNAKTKPREEQYASTYRVVSVLTVLHQDWLNGKEYKCKVSNKALPAPIEKTISKAKGQPREPQVYTLPPSREEMTKNQVSLTCLVKGFYPSDIAVEWESNGQPENNYKTTPPYLDSDGSFFLYSKLTVDKSRWQQGNVFSCSVMHEALHNHYTQESLSLSP
light 1: DIVMTQSQKFMSTSVGDRVSVTCKASQNVGSNVAWYQQKPGQSPEGLISSASSRFSGVPDRFTGSGSGTDFTLTITNVQSEDLAEYFCQQYNSYPFTFGSGTELEIKRTVAAPSVFIFPPSDEQLKSGTASVVCLLNNFYPREAKVQWKVDNALQSGNSQESVTEQDSKDSTYSLSSTLTLSKADYEKHKVYACEVTHQGLSSPVTKSFNRGEC
heavy 2: QVQLVESGGGVVQPGGSLRLSCAASGFTFSNAWMHWVRQAPGKGLEWVAQIKDKSQNYATYVAESVKGRFTISRADSKNSIYLQMNSLKTEDTAVYYCRYVHYAAGYGVDIWGQGTTVTVSSASTKGPSVFPLAPSSKSTSGGTAALGCLVKDYFPEPVTVSWNSGALTSGVHTFPAVLQSSGLYSLSSVVTVPSSSLGTQTYICNVNHKPSNTKVDKKVEPKSCDKTHTCPPCPAPELRGGPKVFLFPPKPKDTLMISRTPEVTCVVVDVSHEDPEVKFNWYVDGVEVHNAKTKPREEQYASTYRVVSVLTVLHQDWLNGKEYKCKVSNKALPAPIEKTISKAKGQPREPQVYTLPPSRKEMTKNQVSLTCLVKGFYPSDIAVEWESNGQPENNYKTTPPYLDSDGSFFLYSKLTVDKSRWQQGNVFSCSVMHEALHNHYTQKSLSLSP
light 2: DIVMTQSPLSLPVTPGEPASISCRSSQPLVHSNRNTYLHWYQQKPGQAPRLLIYKVSNRFSGVPDRFSGSGSGTDFTLKISRVEAEDVGVYYCGQGTQVPYTFGQGTKLEIKRTVAAPSVFIFPPSDEQLKSGTASVVCLLNNFYPREAKVQWKVDNALQSGNSQESVTEQDSKDSTYSLSSTLTLSKADYEKHKVYACEVTHQGLSSPVTKSFNRGEC
notes: Made by Fab arm exchange of the bivalent anti-CLDN6 antibody CH03 with the bivalent anti-CD3 antibody CD3-1; human IgG1 constant region; One anti-CLDN6 arm and one anti-CD3 arm; also called CLDN6-TRAB; CLDN6-targeted T-cell redirecting bispecific antibody
Geo-mean value of FACS (mouse CLDN6): 559
Geo-mean value of FACS (human CLDN6 [1]): 7700
Geo-mean value of FACS (mouse CLDN3): 26
Geo-mean value of FACS (human CLDN9): 184
Geo-mean value of FACS (hCLDN6(Q156L)): 98
Geo-mean value of FACS (human CLDN3): 37
Geo-mean value of FACS (human CLDN4): 35
Geo-mean value of FACS (mouse CLDN4): 22
EC50 (read off the curve), Jurkat/NFAT-RE luciferase reporter, target cells PA-1 (human CLDN6 [2]): ~0.02 nM
EC50 (read off the curve), Jurkat/NFAT-RE luciferase reporter, target cells ABC-1 (human CLDN6 [3]): ~0.04 nM
